{"source": "the DeepSol protein solubility set", "data": [{"assay": "soluble on expression in E. coli; label from the status in PepcDB or PDB records", "values": [{"sequence": "MGSDKIHHHHHHAATRLKRRKFPTINEEFYYNQLENGMTVFLIPKESFKETLAVMSSRFGSIDTNFTVNGKKKSYLAGIAHLLEHQLFEMNKQKDAAYEFTKLGAESNAYTTFDKTIYYFSTADNIKKNLDLLQEFTSQINFTDMSIEKEKKIITQEFNMYQDDSDDYLYQVILSKLYPQTSLAEDITGNRDSIDKLTKNNLEENFHYFYQPENLTLLVAGDFDVKRVYKDIVTTQRQLPDRPKFEIKRSPLKLLPITPTSSMQMDISISKLAVGFRFNFIKKKRKSLIKERLLLKLFFLLLFGWTSEHYQQWYEDRKIDDSFELKIEVSTSYQFVVILLDTKEPIAMSNKIGQTIKKFKTDTNLSASHLQTVKKELYGDFIRSLDSLEALSSQFIDNLWGEETYFDFPTVLQNIEIKDVLEFGEKITKEMQLTDFTLFPK", "soluble on expression in E. coli": "not soluble"}, {"sequence": "MGSDKIHHHHHHAATSNKKNTIKLISTNNNIKIPVYDRQGKQINGFTVESGANVTVIGKPIIVQQKYRKDVFEGIKINGKTYASLGDGGYIPINATGVITSKGMKITRDTAVYNKNGKKLSTYRGHTATLKKDSIVKYGGATTYTIPVSYFNIGNGRYVRASYVQEYNGQTVLTLNYNTFVYNKKGKRINYDGQRKLMNGGVVTTNSKIREAKSSDQNYFYSSANYTDKNKLAFTTTKIKGQDYLSIGKGEYIKIANVKTANGMILFTKGPITITLPSDTTIYSSNFKETKKQIAAGKKVILDKTEIDNSLSDPQLYFRIKGTNELIYWGDLGEYPGVDHTAVYDPNYYSIYSFPLRQFME", "soluble on expression in E. coli": "not soluble"}, {"sequence": "MGSDKIHHHHHHACEQNEDWVVNEPMQSFEENPEYAPLNTIPDWVSEKVTPKEYELWRTMSSRYEINYSFLKKDISEKRKKEIYDCINNICERIEKGQINKYEGFLNIADEDGTTLSDSQYFGRIATRSPEGGAEYKTNGCTLYTHSLGPYIKAAVTYKKSDDDVTITSSSVYTGSPYLGNDPSFSGASSVSYDKDKKLIAASCSGTLSFKDGSRKVEVTVQKTGFMIP", "soluble on expression in E. coli": "not soluble"}, {"sequence": "MGSDKIHHHHHHACKNKTGGPATASSELTDDALMDTVQRRTFLYFWEGAEPNSGLAPERYHVDGVYPQNDANVVTSGGSGFGIMAILAGIDRGYVTREEGLARMERIVSFLEKADRFHGAYPHWWYGDTGKVKPFGQKDNGGDLVETAFLMQGLLAVHQYYINGNEKEKALAARIDQIWKDVDWNWYRNGDQNVLYWHWSPTYGWEMDFPIHGYNECMIMYILAAASPTHGVPAAVYHDGWAQNGAIVSPHKVEGIELHLRYQGTEAGPLFWAQYSFLGLDPVGLKDEYCPSYFHEMRNLTLVNRAYCIRNPKHYKGFGPDCWGLTASYSVDGYAAHSPNEQDDKGVISPTAALSSIVYTPEYSMQVMRHLYNMGDTVFGPFGFYDAFSETDNWYPQRYLAIDQGPIAVMIENYRTGLLWKLFMSHPDVQAGLTKLGFNTNKQDVRQK", "soluble on expression in E. coli": "not soluble"}, {"sequence": "MGSDKIHHHHHHADDSYLIDGGKANPYYNGNMMQYLESRPDYFKDLVEVIRLSGMEDVFEDEQITFFAPTDWSIRGSFNYLNRIWYRMGHDSIKSFSQIKPEVWREMLSMYIVKDKYLLKDIPQIDTTAIAAYPGQAFLSYGQQPMNMGVVYYDANNVKYAGARQIIYSYVYDFTIGDMKNAYVATSDIQPTNGVVHVLRLTDHAFGFEPYLFATKAINATIETEPDN", "soluble on expression in E. coli": "not soluble"}, {"sequence": "MGSDKIHHHHHHAFLTLKPVKTPFTMYSSVLGDFVITQLDENKQLHRYDTKGNTYTQQQVDSLLPSLYVRQLTADERFPDTICGKAVSPKDIQLTNFTFKSVPSAINAPQTGLYFLMESMSKRVDLKMPEDAFRFTDKGIEFIRMETNCIDEAKSKLFTDMLVQKGFAFPACYASGNPTTRKDYDEGYLVLDANHKLFHLKCTKGRPYVKAIQLPEGVLPEYVFITEFRSRRTLGYMVDSKHHFYIINSDGSLVKSALPGFDPAKDELTIFGNMFDWTVKLSTDKDDYYYALDATDYSLIKEHAYKDIRRSVPGLSFTSPDDKFVKPRF", "soluble on expression in E. coli": "not soluble"}, {"sequence": "MGSDKIHHHHHHAGFIFLPKENETASTTVEEVKWLTYDQAVALSKKNPKPIFIDVYTDWCGWCKTMDKNTFSNHKVAAYLNKRFYSVKLNPEKKDTVHYKGVAMTNGALAGKIFHATSYPTTVYLEGDETLLQPIPGYQAPNDLYRIIHYIGENHYKTTTWDDFSKSFNESAE", "soluble on expression in E. coli": "not soluble"}, {"sequence": "MGSDKIHHHHHHAKKVKGNGDIITKEISVRDYSAIKVGSTAMGYSDSWFSLFSRGGNPSYVFGYTQGESASLRITIDENLYPYINVQVKNEELSISTENGTQLSPTRFKIEGTSKKLEKIKMSGCMDFVLRSALSGDDLEIIATRGSDVKMEQPINVSNCIIEATSGSDIIINDLTTRIIRGRASGGSDLKLTGKAENGEYSASGGSDIKAYDLILNQLECSASGGSDIYTHVTDYIKASASGGSDVHYKGSARSDTSTSGGSDIIKEGN", "soluble on expression in E. coli": "not soluble"}, {"sequence": "MGSDKIHHHHHHALKKIYPHATNVSWSQQGNYYVASFTQNGFEKEVWMNGNAQWVMTNTDLQTTDQLTPNVYNDFTLSPYAMWTATNVNLIEFPKRTTLYVITVNLNNSSATKQLFYTLNGRLLQTRDVSYINPTLSPGIFEF", "soluble on expression in E. coli": "not soluble"}, {"sequence": "MGSDKIHHHHHHAPNEEGISVQKMTGFPEGEPGFSLGVSACYAGIYQGELLIAGGCNFPETPAAEGGKKKFYQGIYAADASADSVFVWRKVGQLPVAAAYGVSVSTPRGIVCVGGSNENGSLSTVYRLSLSDDKQAVIVDTLPSLPCTMDNMSGSVVDYTLFVAGGNVNGKPSNGLYCLNLGNPETGWQQLPDFPGAPRVQPVCVGQRKENETLLYLWGGFSGAFDGRSATLSTDGYCYSPSLQQWQPVSTPIGSDSVPVALGGGAGIALTDSLILCTGGVNKDIFLSALQREEMMKAAVTGGNQAAVDSLKSEAKTYMLHPAEWYRFNDRILIYNTRRDKWEEAVRSQDVARAGAALTTGQGQTFFNINGELKPGIRTPEIAKIMID", "soluble on expression in E. coli": "not soluble"}, {"sequence": "MGSDKIHHHHHHAQDRAQQASELLDRLIAGQGDSVYVHLDDNIRKMLSVEMLNGLFKQLEQQAGKYQSHGEWNTEPINGMTVYYCDVKFERLPLRFLTAFNPDGKVNTIRFVPVPPEKTTPPTTSVQDKIKETDIQVCTGNFKLPGTLTLPKNGKDLPVVILVHGSGASDRDETVGANKPFRDLAYGLAERGIAVIRYDKRTKVYGADSAPAGKEITFDEESVDDALSAIKLARSIPTINPERIYILGHSLGGTLAPRIAQRSDKVPAGIILLAGAARPLEDLFISQVKFLASALPSTKDIEKEIAELQKQVDNVKRLGTDTFDITTPLPMNLSQAYWMLANQYKPLEVVRKLTLPILVLQGERDYQVTMQDFELWKSALAKHPNAIFKSYPRLNHLFQEGEGKSTPLEYSRPSSIPSYVTDDIAAFINRPKPGN", "soluble on expression in E. coli": "not soluble"}, {"sequence": "MGSDKIHHHHHHAQNRNTSICRLGFTYDISQSKNWGNNKPVIKSIIPYSSAEQAGIKKYDVIEEINGVPVTEVSVDEIPQLLNPAGRNDVLLTISNLSSPSKQVLVKKDCKKSNAITEDQLASAYAMYSLETTNEQEFVCPFKTTVTSDGVDFGNFKTFAFSTIDENNRKLETVINECIENELTKKGLTVDIAKPDLLIQTFYFFDKNPNYLGANKVLVEKEPTYRYNFSHSKMEKFPFLNYAAAEAEAEYLLQFGIRIIDQKDIPGRVLWECEANELLEDSYRLDEYARVHVPLMCMQYPYTKYGRNVPFKVSKKTYNYTGISYDIDKLDQVVDVDRNSPAYAAGIRPRDIIEKIGRHKMDHSAEEFSSAYKRFITNTMQYRDPKTMFTDANGFKYCMFWDVFKYPQIADASQSSDYLPAFSYLYYFAPYINPSGNNACTFNIKRGKTKLEVIIRPTIRSEVTVEIK", "soluble on expression in E. coli": "not soluble"}, {"sequence": "MGSDKIHHHHHHCQTQVETAPTSDVIKLQQTALASQLGYDIVESLTVEVGPRLAGSPKDIIAVNWAINKLTSLGFDRVYKEPVQVPIWERGEAKAKITFPVEQPLVITALGGSIATPAGGIQAKIARFDSLEALQQAKPEDVQGKIAFIDQKTERHITGEGYGKSVGGRSKGAVVAAQKGAVAIVIRSIGTDHDRMAHTGVMRYQDDVPKIPAAAMSNPDADLVDALLKRNPDALLELQMSPKNAGFNTSYNVIAEVTGSSKPNEIVLIGAHLDSWDEGTGAIDDGAGVAIVTAAAKHIQDLLVKPARTVRVVLYAAEEIGLVGGKAYAETHKAELPLHYIAAESDFGAGRIYQIDTKVNESAFAEVQHALSPMSFNGVALGNNQASGGPDVSMLPALGVPVASLRQDGHDYFDYHHTPNDTLDKIDPAALAQNVAAYAQFAYIMANSTPTLTPLVIQSEK", "soluble on expression in E. coli": "not soluble"}, {"sequence": "MGSDKIHHHHHHDNLQAPGSIKDEEKLRSWLAGYEAEAIKVLREVALSGWRYFNDASPSLKLALDEAENVLTMFVRSTSMQAKQFDMASVTDEKVMRQLGYVSFEGMSALAPSRFADYSQAQAALNRDSKDSTICDKDVPPPCALQKIDMDSIFRNEKDASRLQHLWVSYVTAIAKSKPSYNNIITISNEGAKLNGFANGGAMWRSAFDMSSKVHKAEFDLNKQIDKIYSTIQPFYQLLHAYMRRQLAGIYSNPVGLSKDGPIPAHLFGSLDGGDWSAHYEQTKPFEEESETPEAMLSAFNTQNYTTKKMFVTAYRYFKSAGFPHLPKSYWTSSIFARVWSKDMICHPAAALDMRAPNDFRVKACAQLGEPDFEQAHSLLVQTYYQYLYKDQSLLFREQASPVITDAIANAFAHLSTNPHYLYSQKLVPSEHLDIKDSVIINKLYKESLESFTKLPFTIAADNWRYELFDGTVPKNKLNDRWWEIRNKYEGVRSPQPYNTSNLDALIHNSVSQVHSPATRTLISYVLKFQILKALCQRELFWLSEGCILSEDTTEKLRETMKLGSSITWLKALEMISGKGELDAQPLLEYYEPLINWLRNTNEIDQVVVGWDGEGTP", "soluble on expression in E. coli": "not soluble"}, {"sequence": "MGSDKIHHHHHHDNNVVVLNGSGRSGSNGYAFYKWLLINHPEFNVTLVEPWPSSHLKWETWQKIGAARYVITTHQPFKVRKHQINVQLWHGVPLKRMGIMANNTRYKDNKRNEKLWHKNADIVASSSDLYETLMSACMAIESKKYQKLGFPRLDLLSKPVISKKELLKDLFDQEDEQAAIGIYMPTFRYELEDKSIMQKIKEGNFFAFADFDGEKLNKELKKRHQYLIVKLHPYEMRLFDNFKSQYSNISFLNNDYLFDHNYDLYELLGDTDFLMTDFSSIYFDYLHLNKPIVFVTNFLKQYEKTRGLLMGPYSEITPGISVNSEQELINNLDHLDNQQIVNRRIYWLNLTNQVHGDSYCENVFKYMTQEYRG", "soluble on expression in E. coli": "not soluble"}, {"sequence": "MGSDKIHHHHHHENLYFQGMTQLELLLERIIDRVNVNLRHQKFDVGDYVRRQTPHLHYSKFYAFYGLSADDPVHFHFKNSSLAGSYLLGRVNVLHSALYKSDIRGDELKRKGQHFVCDGKMIPLHDDEVITIKDSFLNKTLVHSNSHDPESPEEFTIRNTVAMPYANIHGSLTEGSFIGSFATVDLSTIHNSVVRYFSYVQTGELVGKCVEPGQIWIKSGDELEFHYSFDKAILDKYISQEAGSCPTGVLMEFVEVRQEDFEEVFASGHMASGAGSASGASVSGYAVIKGDTVIGENVLVSQRAYLDNAWMGKGSNAQENCYIINSRLERNCVTAHGGKIINAHLGDMIFTGFNSFLQGSESSPLKIGDGCVVMPHTIIDLEEPLEIPAGHLVWGYIRNKADLAAHSISFEEFAKVDGEVTMGRMTFRGKGGPFLDSFKKRIKRILSENGAFFDGSEGTGHAQKGKNFTFNIIQPYQDGDPRGMYPTILIQPNNGS", "soluble on expression in E. coli": "soluble"}]}]}
